Molecular target: human CCR5 transiently expressed on CCC/CD4 cells (human) (UniProt P51681)
Experiment: cell-based or functional assay
Details: scale: fraction of the reverse-construct negative control

Chain of UniProt P51681 (P51681 whole entry): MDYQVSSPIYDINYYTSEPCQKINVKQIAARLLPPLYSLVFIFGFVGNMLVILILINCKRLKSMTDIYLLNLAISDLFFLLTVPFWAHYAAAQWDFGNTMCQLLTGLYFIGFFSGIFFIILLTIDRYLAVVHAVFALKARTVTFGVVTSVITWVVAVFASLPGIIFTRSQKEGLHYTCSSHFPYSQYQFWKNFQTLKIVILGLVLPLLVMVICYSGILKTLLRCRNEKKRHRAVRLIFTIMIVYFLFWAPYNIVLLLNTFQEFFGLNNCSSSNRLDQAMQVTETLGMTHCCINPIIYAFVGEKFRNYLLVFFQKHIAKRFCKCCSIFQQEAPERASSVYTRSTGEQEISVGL

In the case of “KSHV viral macrophage inflammatory protein I (vMIP-I) encoded by ORF K6 (ligand)”, the NSI HIV-1 foci generation (immunostaining for retroviral antigen) in CCC/CD4 cells cotransfected with CCR5 and vMIP-I is reported as under 0.5.

From patent publication US6348586
